Experiment: yeast display, Sf9 membrane polyspecificity reagent, FACS + sequencing; frameworks hold sequencing errors
Summary of the method: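 Galactose induction of a Saccharomyces cerevisiae BJ5465 synthetic nanobody display library ran 36–48 hours. The cells were then stained for 1 hour at 4 °C with 10% biotinylated, detergent-solubilized Sf9 membrane reagent, pulled down on streptavidin microbeads and FACS-sorted into low and high (top ~1%) gates on expression and reagent-binding fluorescence. Labels for polyreactivity follow the gate of origin.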
For “QVQLVESGRGLVQAGGSLRLSCAASGFIFSNAIGWYRQAPGKERELVAAISRSGGSTYYADSVKGRVTISRDNAKNTVSLQMNSLKPEDTAVEYCAARSYPRSPVRYDYWGQGTQVTVSS”, the “polyreactivity (PSR sort gate)” value was “high polyreactivity”. In the case of “QVQLVESGRGLVQAGGSLRLSCAASGFTFPNYAMGWYRQAPGKERELVASITRRAGSTNYADSVKGRFTISRDNAKNTVYLQMNSLKPEDTAVYYCNTVVLRYLYNYWGQGTQVTVSS”, the “polyreactivity (PSR sort gate)” value is reported as “high polyreactivity”. In the case of “QVQLVESGRGLVQAGGSLRLSCAASGFTFVYYAMGWYRQAPGKERELVATISGNGGRTYYADSVKGRFTISRDNAKNTVYLQMNSLKPEDTAVYYCAALLYIRSVGYDYWGQGTQVTVSS”, the “polyreactivity (PSR sort gate)” value is reported as “low polyreactivity”. With “QVQLVESGRGLVQAGGSLRLSCAASGFTFYRYAMGWYRQAPGKERELVAAISWSGGSTYYADSVKGRFTISRDNAKNTVYLQMNSLKPEDTAVYYCAANRRFVGTGSTYYYWGQGTHVTVSS” the “polyreactivity (PSR sort gate)” value was “high polyreactivity”. For “QVQLVESGRGLVQAGGSLRLSCAASGGSIPYYAMGWYRQAPGKERELVAAINYSGGSTYYADSVKGRFTISRDNAKNSVYLQMNSLKPEDTAVDYCAARHRYHRGYGYWGQGTQVTLSS”, the “polyreactivity (PSR sort gate)” value was “high polyreactivity”. With “QVQLVESGRGLVQAGGSLRLSCAASGGTFRTYAMAWYRQAPGKERELVAAISVSGGRTYYADSVKGRFTISRDNAKNTVYLQMNSLKPEDTAVYYCAAYWHGFFKYWEMGYWGQGTQVTVSS” the “polyreactivity (PSR sort gate)” value was “high polyreactivity”. In the case of “QVQLVESGRGLVQAGGSLRLSCAASGIFTRYAMGWYRQAPGKERELVAAISRGGGSTYYADSVKGSFTISRDNAKNTVYLQMNSLKPEDTAVYYCAADNSPRPYDYWGQGTQVTVSS”, the “polyreactivity (PSR sort gate)” value is reported as “high polyreactivity”. In the case of “QVQLVESGRGLVQAGGSLRLSCAASGIIFTRYAMGWYRQAPGKERDLVAGISYSGSSTYYADSVKGRFTISRDNAKNTVYLQMNSLKPEDTAVYYCAAEFVTYYSSSKRAYYYWGQGTQVTVSS”, the “polyreactivity (PSR sort gate)” value is reported as “high polyreactivity”. In the case of “QVQLVESGRGLVQAGGSLRLSCAASGLNFYDNMGWYRQAPGKERDLVAAISSSGGSTSYADSVKGRFTISRDNAKNTVYLQMNSLNPEDTAVYYCAAEWYPYPWGYGYWGQGTQVTVSS”, the “polyreactivity (PSR sort gate)” value is reported as “low polyreactivity”. In the case of “QVQLVESGRGLVQAGGSLRLSCAASGLTFTPYAMGWYRQAPGKERELVAAITSGGRTYYADSVKGRFTSSRDNAKNTVYLQMNSLKPEDTAVYYCNADPEYSWWYYGLDYWGQGTQVTVSW”, the “polyreactivity (PSR sort gate)” value is reported as “high polyreactivity”. In the case of “QVQLVESGRGLVQAGGSLRLSCAASGRIFDHYAMGWYRQAPGKERELVAAITWSGANTYYADSVKGRFTISRDNAKNTVYLQMNSLKPEDTAVYYCAAYNGAHSHFGYWGQGTQVTVSS”, the “polyreactivity (PSR sort gate)” value is reported as “low polyreactivity”. With “QVQLVESGRGLVQAGGSLRLSCAASGRIFGVYAMGWDRQAPGKERELVAAISGSTTRTYYADSVKGRFTISRDTAKNTVYLQMNSLKPEDTAVYYCAARSYTPSYKMDYWGQGTQVTVSS” the “polyreactivity (PSR sort gate)” value was “high polyreactivity”. With “QVQLVESGRGLVQAGGSLRLSCAASGRIFKAYAMGWYRQATGKERELVAAITRGGRTKYADSVKGRFTISRDNAKNTVYLQMNSLKPEDTAVYYCAAELPGGYLVDYDYWGHGTQVTVSS” the “polyreactivity (PSR sort gate)” value was “high polyreactivity”. With “QVQLVESGRGLVQAGGSLRLSCAASGRIGKYAMGWYRQAPGKERELVATISSTGTTNYADSVKGRFTISRDNAKNTVYLQMNSLKPDDTAVYYCAAVRHKEYDYWGQGTQVTVSS” the “polyreactivity (PSR sort gate)” value was “high polyreactivity”. For “QVQLVESGRGLVQAGGSLRLSCAASGRISVFNAMGWYRQAPGKERELVAAISWSGGSTYYADSVKGRFTISRDNAKNTVYLQMNSLKPEDTAVYYCAARGHYQYYWGQGTQVTVSS”, the “polyreactivity (PSR sort gate)” value was “low polyreactivity”. In the case of “QVQLVESGRGLVQAGGSLRLSCAASGRTFDFNAMGWYRQAPGKERELVAAISSDSDTYYADSVKGRFTISRDNAKNTVFLQMNSLKPEDTAVYYCAAEHQYPYGWYYYWGQGTQVTVSS”, the “polyreactivity (PSR sort gate)” value is reported as “high polyreactivity”. With “QVQLVESGRGLVQAGGSLRLSCAASGRTFYGYARGCYRQAPGKERELVARISSGGGTYYADSVKGRFIISRDNAKYTVYLQMNSLKPEDTAVYYCNAEVYRWSGSYTGWDSWHDDWGQGTQVTVSS” the “polyreactivity (PSR sort gate)” value was “low polyreactivity”. In the case of “QVQLVESGRGLVQAGGSLRLSCAASGRTFYYYTMGWYRQAPGKERELVAAISYSGGSTSYADSVKGRFTISRYNAKNTVYLQMNRLKPEDTAVYYCNAPYKYYTQRRYHYDYCGQGTQVTVSS”, the “polyreactivity (PSR sort gate)” value is reported as “high polyreactivity”. In the case of “QVQLVESGRGLVQAGGSLRLSCAASGRTLSQYAMGWYRQAPGKERELVAAITRSGGSTYYADSVTGRFTISRDISKNTVYLQMNSLKRDDTAVYYCNITLYTTYDYWGQGTQVTVSS”, the “polyreactivity (PSR sort gate)” value is reported as “low polyreactivity”. For “QVQLVESGRGLVQAGGSLRLSCAASGRTVTNNVLGWYRQAPGKEREFVASISSGGGSTYYADSVKGRFTISRDNANNTVYVQMNSLKPEDTAVYYCAAGYWWRYALYGYWGQGTQVTVSS”, the “polyreactivity (PSR sort gate)” value was “low polyreactivity”. In the case of “QVQLVESGRGLVQAGGSLRLSCAASGSIFKYYAMGWYRQAPGKERELVAAITSGGSTSYADSVKGRFTISRDNAKNTVYLQMNSLKPEDTAVYYCAAELRSWRSYGSVWRWYYYWGQGTQVTVSS”, the “polyreactivity (PSR sort gate)” value is reported as “high polyreactivity”. For “QVQLVESGRGLVQAGGSLRLSCAASGSIFPTYALGCYRQAPGKERELVAAISSGENTYYADSVKGRFTISRDNAKNTVSLQMNSLKPEDTAVYFCAAADNYGIRDLYASDGTQNYYWGQGTQVTVSS”, the “polyreactivity (PSR sort gate)” value was “low polyreactivity”. In the case of “QVQLVESGRGLVQAGGSLRLSCAASGSIFYDNAMGWYRQAPGKDRELVAAISYSGDSTYYADSVKGRFTISHDNAKNTVYLQMNSLKPEDTAVYYCAADYYGIYYSGTSEYWGQGTQVTVSS”, the “polyreactivity (PSR sort gate)” value is reported as “low polyreactivity”. With “QVQLVESGRGLVQAGGSLRLSCAASGSTFNINAMGWYRQAPGKERELVAAISWSGDITYYADSVKGRFTISRDNAKNTVYLQMNSLKPEDTAVYYCNTDDPGNYWYAEYDYWGQGTQVTVSS” the “polyreactivity (PSR sort gate)” value was “low polyreactivity”. With “QVQLVESGRGLVQAGGSLRLSCAASGSTFVANDMGWYSQAPGKERELVAAISWSDATTYYADSVKGRGTISRDNAKNTVYLQMNSRKPEDNAVYDCAATRDTNNMDYWGHGTQVTVSS” the “polyreactivity (PSR sort gate)” value was “low polyreactivity”. In the case of “QVQLVESGRGLVQAGGSLRLSCAASGVTFNVYAMGWYREAPGKVRELVAAISYNGGRTYYADSVKGRFTISRDNAKNTVYLQINSLKPEDTAVFYCAALYYFTPSDGRRYDYWGQCTQVTVSS”, the “polyreactivity (PSR sort gate)” value is reported as “high polyreactivity”. For “QVQLVESGRGLVQAGGSLRLSCAPSGFTFHNNVMGWYRQAPGKERELVATISKSGGSTYYADSVKGRFTISRDNAKNTVYLQMNSLKPEDTAVYYCARRYRDYGRYGYWGQGTQVTVSS”, the “polyreactivity (PSR sort gate)” value was “high polyreactivity”. In the case of “QVQLVESGRGLVQAGGSLRLSCAPSGLNFVRYAMGWYRQAPGKERELVARITSRGTSTYYADSVKGRFTISRDNAKNTVYLQMNSLKPEDTAVYYCIKFRSFRDKTRYDYWGQGTQVTVSS”, the “polyreactivity (PSR sort gate)” value is reported as “low polyreactivity”. With “QVQLVESGRGLVQAGGSLRLSCASSGRIFTYTAMGWYRQAPWKDSELVARITSGGNTNYADSVKGRFTISRDNAKNTVYLPMNSLKPEDTAVYYSATGLYWFTNRYGCWGLGTQVTVSS” the “polyreactivity (PSR sort gate)” value was “low polyreactivity”. In the case of “QVQLVESGRGLVQAGVSLRISCAPSGRIFSGYAMGWYRQAPGKERELVAAITSSSGSTYYADSVKWRFTISRDNAKNTFYLQMISLKPEDTAVYYCAAEYVRLYWYTSDYWGQGTEVTVSS”, the “polyreactivity (PSR sort gate)” value is reported as “low polyreactivity”. For “QVQLVESGRRLVQAGGSLRLSCAASGLTLYKNGMGWYRKAPGQVRELVAVISRSGGRTYYADSVKGRFTISRDNAKNTVYVQMNSLKPEDTAVYYCAARQYGPRYTYYYWGQGTQVTVSS”, the “polyreactivity (PSR sort gate)” value was “high polyreactivity”. In the case of “QVQLVESGVCIVQAGGSLRLSGADSGNTLIQYAMRWYRQPHGKERELVAGISGSDDSTYYADSVKGRFTISRDNAKNTVYLQMNSLKPEDTAVYYCAALSISPSRTGYYWGQGTQVTVSS”, the “polyreactivity (PSR sort gate)” value is reported as “low polyreactivity”.
